Measurements reported in patent US20250144178A1 (KANAPH THERAPEUTICS, published 2025).
Residue numbers refer to the chain shown, from its start.

B1: T1.02m (anti-mu FAP/mu IL-12 mut1, mu IgG2a DANG) (bispecific antibody)
heavy: QVQLQQSGAELARPGASVNLSCKASGYTFTNNGINWLKQRTGQGLEWIGEIYPRSTNTLYNEKFKGKATLTADRSSNTAYMELRSLTSEDSAVYFCARTLTAPFAFWGQGTLVTVSAAKTTAPSVYPLAPVCGDTTGSSVTLGCLVKGYFPEPVTLTWNSGSLSSGVHTFPAVLQSDLYTLSSSVTVTSSTWPSQSITCNVAHPASSTKVDKKIEPRGPTIKPCPPCKCPAPNLLGGPSVFIFPPKIKDVLMISLSPIVTCVVVAVSEDDPDVQISWFVNNVEVHTAQTQTHREDYGSTLRVVSALPIQHQDWMSGKEFKCKVNNKDLPAPIERTISKPKGSVRAPQVYVLPPPEEEMTKKQVTLWCMVTDFMPEDIYVEWTNNGKTELNYKNTEPVLDSDGSYFMYSKLRVEKKNWVERNSYSCSVVHEGLHNHHTTKSFSRTPGK
light: QIVLTQSPAIMSASPGEKVTMTCSASSGVNFMHWYQQKSGTSPKRWIFDTSKLASGVPARFSGSGSGTSYSLTISSMEAEDAATYYCQQWSFNPPTFGGGTKLEIKRADAAPTVSIFPPSSEQLTSGGASVVCFLNNFYPKDINVKWKIDGSERQNGVLNSWTDQDSKDSTYSMSSTLTLTKDEYERHNSYTCEATHKTSTSPIVKSFNRNEC
chain: MWELEKDVYVVEVDWTPDAPGETVNLTCDTPEEDDITWTSDQRHGVIGSGKTLTITVKEFLDAGQYTCHKGGETLSHSHLLLHKKENGIWSTEILKNFKNKTFLKCEAPNYSGRFTCSWLVQRNMDLKFNIKSSSSSPDSRAVTCGMASLSAEKVTLDQRDYEKYSVSCQEDVTCPTAEETLPIELALEARQQNKYENYSTSFFIRDIIKPDPPKNLQMKPLKNSQVEVSWEYPDSWSTPHSYFSLKFFVRIQRAKEKMAETEEGCNQKGAFLVEKTSTEVQCKGGNVCVQAQDRYYNSSCSKWACVPCRVRSGGGGSGGGGSGGGGSRVIPVSGPARCLSQSRNLLKTTDDMVKTAREKLKHYSCTAEDIDHEDITRDQTSTLKTCLPLELHKNESCLATRETSSTTRGSCLPPQKTSLMMTLCLGSIYEDLKMYQTEFQAINAALQNHNHQQIILDKGMLVAIDELMQSLNHNGETLRQKPPVGEADPYRVKMKLCILLHAFSTRVVTINRVMGYLSSAGGGGSGGGGSEPRGPTIKPCPPCKCPAPNLLGGPSVFIFPPKIKDVLMISLSPIVTCVVVAVSEDDPDVQISWFVNNVEVHTAQTQTHREDYGSTLRVVSALPIQHQDWMSGKEFKCKVNNKDLPAPIERTISKPKGSVRAPQVYVLPPPEEEMTKKQVTLSCAVTDFMPEDIYVEWTNNGKTELNYKNTEPVLDSDGSYFMVSKLRVEKKNWVERNSYSCSVVHEGLHNHHTTKSFSRTPGK
notes: Mouse surrogate, knob-in-hole heterodimer
B2: T1.01m (anti-mu FAP/mu IL-12, mu IgG2a DANG) (bispecific antibody)
heavy: B1 heavy
light: B1 light
chain: B1 chain with A255K, A260K
notes: as for B1
B3: T1.03m (anti-mu FAP/mu IL-12 mut2, mu IgG2a DANG) (bispecific antibody)
heavy: B1 heavy
light: B1 light
chain: B1 chain with R254A, K256A
notes: as for B1
B4: T1.12m (anti-mu FAP/null, mu IgG2a DANG) (antibody)
heavy: B1 heavy
light: B1 light
chain: EPRGPTIKPCPPCKCPAPNLLGGPSVFIFPPKIKDVLMISLSPIVTCVVVAVSEDDPDVQISWFVNNVEVHTAQTQTHREDYGSTLRVVSALPIQHQDWMSGKEFKCKVNNKDLPAPIERTISKPKGSVRAPQVYVLPPPEEEMTKKQVTLSCAVTDFMPEDIYVEWTNNGKTELNYKNTEPVLDSDGSYFMVSKLRVEKKNWVERNSYSCSVVHEGLHNHHTTKSFSRTPGK
notes: One-armed anti-mouse FAP antibody without IL-12; control

Legend:
[1] = target: T1, mouse FAP (fibroblast activation protein alpha) overexpressed in B16F10 cells (B16F10-mFAP) (mouse, UniProt P97321 1-761); assay: flow cytometry on B16F10-mFAP cells, detection with anti-mouse IgG2a antibody
T1 construct: whole, on cells; also called mouse FAP-expressing cell line
T1 sequence (looked up): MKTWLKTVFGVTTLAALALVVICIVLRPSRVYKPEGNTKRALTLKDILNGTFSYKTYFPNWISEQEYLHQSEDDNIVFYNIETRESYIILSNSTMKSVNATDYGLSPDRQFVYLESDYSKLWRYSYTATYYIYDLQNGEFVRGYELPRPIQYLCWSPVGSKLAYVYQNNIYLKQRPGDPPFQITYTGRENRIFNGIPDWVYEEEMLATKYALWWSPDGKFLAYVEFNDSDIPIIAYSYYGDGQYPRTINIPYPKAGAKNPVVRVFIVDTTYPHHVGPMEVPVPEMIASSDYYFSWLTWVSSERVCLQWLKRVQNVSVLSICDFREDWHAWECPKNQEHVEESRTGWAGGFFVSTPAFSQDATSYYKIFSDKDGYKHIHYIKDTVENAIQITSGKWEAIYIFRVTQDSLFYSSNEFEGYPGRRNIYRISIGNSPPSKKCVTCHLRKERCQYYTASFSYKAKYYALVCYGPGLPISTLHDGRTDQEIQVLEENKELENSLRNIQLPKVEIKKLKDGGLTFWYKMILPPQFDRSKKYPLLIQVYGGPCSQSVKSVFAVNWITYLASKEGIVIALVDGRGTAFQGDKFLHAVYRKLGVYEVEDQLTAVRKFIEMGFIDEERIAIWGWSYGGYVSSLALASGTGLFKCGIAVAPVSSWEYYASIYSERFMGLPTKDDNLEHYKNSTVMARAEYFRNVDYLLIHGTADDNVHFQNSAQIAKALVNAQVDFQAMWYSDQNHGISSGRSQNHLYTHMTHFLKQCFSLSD
Protocol: (§1) Specifically, the cell line was prepared by suspending in a FACS buffer solution at 1×10⁵ cells/100 μl, and treated with 1 μg of each T1.12m, T1.01m, T1.02m and T1.03m. The cells were washed twice with a FACS buffer solution. The cells were stained with an anti-mouse IgG2a antibody (Biolegend). The negative control was stained only with an anti-mouse IgG2a antibody (Biolegend). The expression rate of the stained cells was measured using BD LSR and analyzed using a FlowJo software.

B16F10 = target: T2, B16F10; assay: flow cytometry on parental B16F10 cells, detection with anti-mouse IgG2a antibody
T2 construct: not a protein target; also called parental B16F10 cells, without the transduced mouse FAP gene
Protocol: as §1

[2] = target: T1, mouse FAP (fibroblast activation …); assay: flow cytometry on B16F10-mFAP cells, 1 µg protein per 1x10^5 cells, anti-mouse IgG2a detection
Protocol: as §1

recombinant mouse FAP [3] = target: T3, recombinant mouse FAP (mouse, UniProt P97321 26-761); assay: SPR, fusion protein captured by anti-mouse IgG (Fc) on a CM5 chip, mouse FAP as analyte 1.5625-100 nM, 1:1 binding model
T3 construct: Soluble analyte in SPR
T3 sequence (looked up): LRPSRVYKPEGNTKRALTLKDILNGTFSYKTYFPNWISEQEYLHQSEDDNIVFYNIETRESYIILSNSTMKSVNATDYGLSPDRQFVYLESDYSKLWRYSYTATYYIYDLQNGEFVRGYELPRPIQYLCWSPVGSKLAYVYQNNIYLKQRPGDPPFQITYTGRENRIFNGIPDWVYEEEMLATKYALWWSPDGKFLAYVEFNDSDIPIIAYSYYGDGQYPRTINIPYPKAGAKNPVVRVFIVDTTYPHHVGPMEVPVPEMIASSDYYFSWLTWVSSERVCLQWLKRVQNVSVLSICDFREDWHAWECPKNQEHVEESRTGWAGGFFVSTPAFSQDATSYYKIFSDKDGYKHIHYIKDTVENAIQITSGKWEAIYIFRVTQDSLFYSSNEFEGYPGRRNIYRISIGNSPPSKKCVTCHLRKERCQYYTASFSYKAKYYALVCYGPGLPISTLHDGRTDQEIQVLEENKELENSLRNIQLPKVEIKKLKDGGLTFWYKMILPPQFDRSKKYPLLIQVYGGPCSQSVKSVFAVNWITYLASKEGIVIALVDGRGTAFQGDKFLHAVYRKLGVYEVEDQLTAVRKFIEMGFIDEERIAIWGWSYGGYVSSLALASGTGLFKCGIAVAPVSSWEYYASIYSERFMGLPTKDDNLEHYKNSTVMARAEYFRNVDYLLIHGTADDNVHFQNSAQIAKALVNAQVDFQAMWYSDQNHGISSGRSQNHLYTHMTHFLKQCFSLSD

recombinant mouse FAP [4] = target: T3, recombinant mouse FAP; assay: SPR, fusion protein captured by anti-mouse IgG (Fc) on a CM5 chip, mouse FAP as analyte 1.5625-200 nM, 1:1 binding model
Protocol: The surface of the CM5 chip was activated with a 1:1 mixture of […] (N-hydroxysuccinimide) and […] (1-Ethyl-3-(3-dimethylaminopropyl) carbodiimide), and 25 μg/ml of anti-mouse IgG (Fc) antibody was immobilized for 400 seconds at a rate of 10 μl/min. The remaining active ester groups were blocked with 1 M ethanolamine. T1.01m, T1.02m and T1.03m were diluted to 2 μg/ml and reacted on the CM5 chip immobilized with the anti-mouse IgG (Fc) antibody. The recombinant mouse FAP was diluted to 200 nM in 1×HBS-EP+buffer solution and diluted by serial dilution. The diluted recombinant mouse FAP was reacted at a rate of 30 μl/min. The association and dissociation times were 180 seconds and 400 seconds, respectively. After the dissociation, stabilization was performed for 60 seconds, and then a regeneration was performed for 30 seconds with a 10 mM glycine pH 1.5 solution at a rate of 30 μl/min.

Row | Binder | percent of cells in the positive gate (mFAP-PE) [1] | percent of cells in the positive gate (mFAP-PE) (B16F10) | percent of cells bound [2] | Kd (recombinant mouse FAP [3]) | koff (recombinant mouse FAP [3]) | kon (recombinant mouse FAP [3]) | Kd (recombinant mouse FAP [4]) | koff (recombinant mouse FAP [4]) | kon (recombinant mouse FAP [4])
1 | B1 | 92.1% | 1.37% | ≥ 99% | 1.53 nM | 0.00014 s⁻¹ | 91500 M⁻¹ s⁻¹ | – | – | –
2 | B2 | 93.7% | 2.41% | ≥ 99% | 1.51 nM | 6.75e-05 s⁻¹ | 44700 M⁻¹ s⁻¹ | – | – | –
3 | B3 | 91.6% | 0.89% | ≥ 99% | – | – | – | 1.25 nM | 7.66e-05 s⁻¹ | 61200 M⁻¹ s⁻¹
4 | B4 | 92.6% | 1.97% | ≥ 99% | – | – | – | – | – | –
